The nature of data set [1]: LC-MS assay of GH3 conjugation of IAA with Asp or Glu. It counts as biochemical. As to conditions: for kcat (hrs−1) IAA-Asp: conjugation of IAA with Asp by recombinant GH3 protein, IAA-Asp product by LC-MS; for kcat (hrs−1) IAA-Glu: conjugation of IAA with Glu by recombinant GH3 protein, IAA-Glu product by LC-MS. The essentials: (§1)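 N-His-tagged GH3 homologs expressed in E. coli C41(DE3) and Ni-NTA purified (44 to 164 μg/mL) were incubated 3 hours at 30° C. in 20 mM Tris-HCl pH 8.0, 5 mM MgCl2, 1 mM DTT with 5 mM each of auxin, ATP and Asp or Glu. Conjugates were quantified by LC-MS against standards.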

Data set [2] is described as follows: LC-MS assay of GH3 conjugation of 2,4-D with Asp or Glu. It counts as biochemical. Particulars: 5 mM 2,4-D substrate; for kcat (hrs−1) 2,4-D-Asp: conjugation of 2,4-D with Asp by recombinant GH3 protein, 2,4-D-Asp product by LC-MS; for kcat (hrs−1) 2,4-D-Glu: conjugation of 2,4-D with Glu by recombinant GH3 protein, 2,4-D-Glu product by LC-MS. The essentials: as §1

B1: PtGH3-3: GH3 protein, accession EEE85053 (protein, listed as Populus trichocarpa)
chain: MAVDNALSSPLGPPACEKDAKALQFIEEMTRKTDSVQEDVLAKILIQNAEVEYLKRFNLDGATDRETFKSKLPTIRYEDLQPEIQRIANGDRSSILSTHPISEFLTSSGTSAGERKLMPTIKQELDRRQLLYSLLMPVMNLYVPGLDKGKGLYFLFVKSETRTPGGLLARPVLTSYYKSDHFKTRPYDPYNVYTSPNEAILCADSFQSMYTQMLCGLLEREQVLRVGAVFASGLLRAIRFLQLHWRELADDIESGMLNKEITDPSVKDCMVKILKPNPKLAEFVRMECSKENWEGIITRIWPNTKYLDVIVTGAMAQYIPTLDYYSGGLPLACTMYASSECYFGLNLNPMCKPSEVCYTIMPNMAYFEFLPHDPNGFTHDSTPKLVDLADVELGKEYELVITTYAGLYRYQVGDILRVTGFHNSAPQFHFVRRKNVLLSIDSDKTDEAELQKAVENASQLLREFNTSVVEYTSYADTKTIPGHYVIYWELLVKDLANSPSDEVLNQCCLAMEECLNSVYRQGRVADYSIGPLEIRVVKNGTFEELMDYAISRGASINQYKVPRCVNFTPIMELLDSRVVSKHFSPALPYWTPERRR
With B1, in data set [1], the “kcat (hrs−1) IAA-Asp” value stood at 806.314 h⁻¹ and the “kcat (hrs−1) IAA-Glu” value turned out to be 44.225 h⁻¹. Also, in data set [2], the “kcat (hrs−1) 2,4-D-Asp” value was determined as 2.033 h⁻¹ and the “kcat (hrs−1) 2,4-D-Glu” value stood at 0.845 h⁻¹.

B2: PtGH3-5: GH3 protein, accession EEE97566 (protein, listed as Populus trichocarpa)
chain: MPEAPKNTLKPSDYNLAEKNKKSLQFIEDVTSNADEAQKKVLEEILSRNAHVEYLQRHGLNGQTNRETFKKVMPVINYEDIQPDINRIANGDASPILCSKPISEFLTSSGTSGGERKLMPTIVEELGRRSLLYSLLMPVMSQFVPDLEKGKGMYFLFIKSEAKTPGGLVARPVLTSYYKSTHFKDRPYDPYTNYTSPNETILCPDSYQSMYSQMLCGLCQHKEVLRVGAVFASGFIRAIRFLEKYWKFLANDIRTGIIDPQITDPSIREAVMKILKPDAKLADFIEAECSKESWQGIITRLWPNTKYVDVIVTGTMSQYIPTLDYYSNGLPLVCTMYASSECYFGVNLNPICKPSEVSYTLIPTMAYFEFLPVNRNNGGINSVSRPKSLKEKEQQELVDLVDVKLDQEYELVVTTYAGLYRYRVGDVLRVVGFKNKAPQFSFICRKNVVLSIDSDKTDEVELQSAVKNAVNHLIPFDATLAEYTSYADTTTIPGHYVLFWELSLSGSTPIPPSVFEDCCLTIEESLNSVYRQGRVSDKSIGPLEIKIVEPGTFDKLMDYAISLGASINQYKTPRCVKFAPIVELLNSRAVSRYFSPKCPKWVPGHKQWNKN
Regarding B2, in data set [1], the “kcat (hrs−1) IAA-Asp” value worked out at 941.117 h⁻¹ and the “kcat (hrs−1) IAA-Glu” value came out at 160.490 h⁻¹. In data set [2], the “kcat (hrs−1) 2,4-D-Asp” value is 3.142 h⁻¹ and the “kcat (hrs−1) 2,4-D-Glu” value was 1.214 h⁻¹.

B3: PtGH3-8: GH3 protein, accession EEE78719 (protein, listed as Populus trichocarpa)
chain: MLPIFDPNDNEAGLKLLEDLTNNACQIQRQVLEYILTTNLHTGYLKSFLNGDSSKENFKNKVPIVNYEDIKPCIERIANGEPSSIISAQPITELLTSSGTSGGQPKMMPSTAEELERKTFFYNLLMPIMNKYVDGLDQGKGMYLLFTKPEISTPSGLMARPVLTSYYKSSNFRNRAFNRYNVYTSPDETILCPDSKQSMYCQLLCGLVQREEVLRVGAVFASAFLRAIKFLEEYQKELCSNIRTGRLSDWITDPNCRNAVSSFLSKPNSELADLIEVECSGKSCEGIIKKLWPRTKYIEVIVTGSMAQYIPTLEFYSGGLPLVSTMYGSSECYLGINFKPLSNPSDVSYTLIPNMAYFEFLPVDKDNKKVIQAEKDVEAVDLEDVKLGHYYELVVTTFTGLYRYRVGDILMVTGFYNNAPQFRFVHRRNVVLSIDTDKTNEEDLLKAVTQAKVLLEPLGFLLTEYTSFADTSSIPGHYVLFWELKTQGTNDLPELDPITMEKCCSTVEESLDSIYRRCRKKDKSIGPLEIRVVTHGTFDALMDFCVSQGSSVNQYKTTRCIKSEEAFKILHSRVVGRFFSKKTPFWE
On to B3, for which, in data set [1], the “kcat (hrs−1) IAA-Asp” value amounted to 13.999 h⁻¹ and the “kcat (hrs−1) IAA-Glu” value came to 568.780 h⁻¹. For the same molecule, in data set [2], the “kcat (hrs−1) 2,4-D-Asp” value amounted to 0.000 h⁻¹ and the “kcat (hrs−1) 2,4-D-Glu” value is 0.559 h⁻¹.

B4: PtGH3-2: GH3 protein, accession EEE87842 (protein, listed as Populus trichocarpa)
chain: MAVDNALSSPLGPPACEKDAKALQFLEEMTRNADSVQEDVLAKILTQNSEVEYLKRFNLDGAIDRETFKSKIPMIRYEDLQPEIQRIANGDRSSILSAHPISEFLTSSGTSAGERKLMPTIKQELDRRQLLYSLLMPVMNLYVPGLDKGKGLYFLFVKSETRTPGGLLARPVLTSYYKSDHFKTRPYDPYNVYTSPNEAILCADSFQSMYTQMLCGLLEREQVLRVGAVFASGLLRAIRFLQLHWRELSDDIESGMLNKKITDPTVKDCMVNILKPNPKLAEFVRMECGKENWEGIITRIWPNTKYLDVIVTGAMAQYIPTLDYYSGGLPKACTMYASSECYFGLNLNPMCKPSEVCYTIMPNMAYFEFLPHEPAGISQDSTPKLVDLADVELGKEYELVITTYAGLYRYRVGDILRVTGFHNSAPQFHFVRRKNVLLSIDSDKTDEAELQTAVENASQLLREFNTSVVEYTSHADTKTIPGHYVIYWELLVKDSANSPGDEVLNQCCLAMEESLNSVYRQGRVADNSIGPLEIRVVKNGTFEELMDYAISRGASINQYKVPRCVNFTPIMELLDSRVVSKHFSPALPRWAPERRR
Turning to B4, in data set [1], the “kcat (hrs−1) IAA-Asp” value was determined as 679.646 h⁻¹ and the “kcat (hrs−1) IAA-Glu” value amounted to 53.401 h⁻¹. Also, in data set [2], the “kcat (hrs−1) 2,4-D-Asp” value was 0.934 h⁻¹ and the “kcat (hrs−1) 2,4-D-Glu” value turned out to be 0.203 h⁻¹.

B5: PtGH3-4: GH3 protein, accession EEE95321 (protein, listed as Populus trichocarpa)
chain: MPEEAPMKNLVCEKSRKALQFIEDVTRNADEVQRKVLAEILSRNANVEYLQRYGLNGNKADREAFKKVMPVVSYEDLKPDIDRIANGDTSQIICSQPISEFLTSSGTSAGERKLMPTIEEELGRRSLLYSLLMPVMNQFVPGLDRGKGMYFLFIKSETKTPGGLLARPVLTSYYKSSYFRDRPYDPYTNYTSPNETILCQDSYQSMYSQLLCGLYQNYDVLRVGAVFASGFIRAIKFLEKHWILLCNDIRNGTIDPKISDPSVREAVLKILKPNQKLADFIEAECTRESWKGIITRLWPNTKYIDVIVTGTMSQYIPTLDYYCDGLPLVCTMYASSECYFGLNLNPLSKPSEVSYTLIPTMAYFEFLPVNRKNGLINSITAPTSLDQKKDQELVDLVDVKLGEEYELVVTTYAGLYRYRVGDILRVAGFKNKAPQFNFVCRKNVVLSIDSDKTDEVELQNAVQNAANHLLPFGASLTEYTSYADTSKIPGHYVLFWEICLSGTTPIPPSVFEDCCLAIEESLNSVYRQGRVSDKSIGPLEIRITERGAFDKLMDFALSQGASINQYKAPRCVKYAPIIELLNSRVVSNYISPKCPKWVPGHKQWCTPN
With B5, in data set [1], the “kcat (hrs−1) IAA-Asp” value stood at 660.985 h⁻¹ and the “kcat (hrs−1) IAA-Glu” value turned out to be 93.781 h⁻¹. For the same molecule, in data set [2], the “kcat (hrs−1) 2,4-D-Asp” value was 0.740 h⁻¹ and the “kcat (hrs−1) 2,4-D-Glu” value stood at 0.536 h⁻¹.
